One may read the EC50 as the concentration needed to bring the measured effect to its halfway point.

One assay has as its target T1, human serum albumin (human, UniProt P02768 25-609).
T1 construct: also called HSA; HAS
Nature of the assay: kinetic ELISA on coated HSA (negative control); ND: not detected. How it is done:
(§1) The TrkB fusion constructs were assessed for binding to recombinant human, mouse, rat and cynomolgus TfR1. […] When these conjugates were compared to a control VNAR-Fc (open circles), no loss of affinity for TrkB(HC2N) (squares) was observed and only minimal loss for TrkB(HV2N) (triangles).
(§2) TfR-1-binding ELISA. Nunc MaxiSorp plates (Thermo Fisher) were coated with 100 μl of 1 μg/ml of purified, recombinant mouse, human, rat or cynomolgus TfR-1, or with human serum albumin (HAS; Sigma) and incubated at 4° C. overnight. Plates were incubated with blocking buffer (2.5% non-fat dry milk in PBS with 0.1% Tween20; “PBST”) for 1 hat room temperature. Antibody or conjugate solutions were incubated in PBST for 30 min. The blocked solutions (100 μl) were transferred to the blocked plates and incubated for 1 h before washing with PBST. After washing, the plates were incubated for 30 min with a goat anti-human Fc-peroxidase antibody diluted 1:5000 (Sigma) in PBST. The plates were washed and developed with SureBlue™ TMB substrate (VWR). The development of the reaction was measured at 370 nm in real time providing data for Vmax analysis. EC50 values were calculated using 4-parametric non-linear regression (Prism).
(In general: An ELISA detects its analyte on a solid surface through an enzyme-linked reagent.)

Assay [1] concerns the target T2, human TfR-1 (transferrin receptor 1), purified recombinant (human, UniProt P02786 89-760, limits assumed).
T2 construct: Coated on ELISA plates at 1 ug/ml; also called hTfR1
Nature of the assay: kinetic ELISA on coated recombinant TfR-1, anti-human Fc-HRP detection, Vmax at 370 nm. The procedure: as §1, §2

In assay [2] the target is T3, mouse TfR-1 (transferrin receptor 1), purified recombinant (mouse, UniProt Q62351 89-763, limits assumed).
T3 construct: also called mTfR1
T3 sequence (Q62351 89-763 limits assumed): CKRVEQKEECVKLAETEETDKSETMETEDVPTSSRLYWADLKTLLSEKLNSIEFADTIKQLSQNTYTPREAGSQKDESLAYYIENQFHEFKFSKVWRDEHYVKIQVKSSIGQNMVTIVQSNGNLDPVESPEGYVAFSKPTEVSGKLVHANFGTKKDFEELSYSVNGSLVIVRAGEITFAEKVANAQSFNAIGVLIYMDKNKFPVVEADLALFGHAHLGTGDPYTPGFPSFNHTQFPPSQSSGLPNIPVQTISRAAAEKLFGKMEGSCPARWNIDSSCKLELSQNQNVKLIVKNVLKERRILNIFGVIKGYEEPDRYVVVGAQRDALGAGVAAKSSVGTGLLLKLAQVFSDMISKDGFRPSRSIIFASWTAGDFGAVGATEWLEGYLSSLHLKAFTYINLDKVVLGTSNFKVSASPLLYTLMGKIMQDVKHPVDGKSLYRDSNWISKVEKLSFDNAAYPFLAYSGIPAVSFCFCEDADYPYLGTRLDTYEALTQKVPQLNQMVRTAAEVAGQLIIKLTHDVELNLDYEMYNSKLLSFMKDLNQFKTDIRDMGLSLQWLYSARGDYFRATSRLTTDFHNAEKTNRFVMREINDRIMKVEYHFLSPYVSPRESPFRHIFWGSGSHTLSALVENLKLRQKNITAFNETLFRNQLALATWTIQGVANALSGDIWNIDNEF
Described as above. How it is done:
as §1, §2

The target in assay [3] is T4, rat TfR-1 (transferrin receptor 1), purified recombinant (rat, UniProt Q99376 89-761, limits assumed).
T4 construct: also called rTfR1
T4 sequence (Q99376 89-761 limits assumed): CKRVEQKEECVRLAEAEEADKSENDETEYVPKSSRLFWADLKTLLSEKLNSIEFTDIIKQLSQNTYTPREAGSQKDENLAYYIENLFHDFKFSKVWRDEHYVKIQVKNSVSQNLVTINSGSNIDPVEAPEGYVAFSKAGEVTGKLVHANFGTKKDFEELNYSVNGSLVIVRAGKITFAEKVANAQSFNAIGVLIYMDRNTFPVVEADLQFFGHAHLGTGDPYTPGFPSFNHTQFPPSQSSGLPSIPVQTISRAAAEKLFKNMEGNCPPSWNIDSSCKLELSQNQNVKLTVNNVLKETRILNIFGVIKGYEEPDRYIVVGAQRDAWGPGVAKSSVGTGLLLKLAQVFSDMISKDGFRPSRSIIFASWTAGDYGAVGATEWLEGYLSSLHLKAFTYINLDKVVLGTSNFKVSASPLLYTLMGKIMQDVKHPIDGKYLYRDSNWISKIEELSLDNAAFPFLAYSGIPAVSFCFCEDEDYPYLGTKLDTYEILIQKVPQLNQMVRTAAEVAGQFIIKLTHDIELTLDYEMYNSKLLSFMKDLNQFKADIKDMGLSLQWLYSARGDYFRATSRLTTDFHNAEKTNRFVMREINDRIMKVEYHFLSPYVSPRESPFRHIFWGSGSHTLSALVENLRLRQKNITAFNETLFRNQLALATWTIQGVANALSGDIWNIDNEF
The assay is described as above. How it is done:
as §1, §2

Assay [4] has as its target T5, cynomolgus TfR-1 (transferrin receptor 1), purified recombinant (cynomolgus, UniProt H9EXL1 89-760 (rhesus entry)).
T5 construct: also called cTfR1
The description is as above. The procedure:
as §1, §2

Assay [5] concerns the target human TrkB receptor (overexpressed on TrkB-NFAT-bla CHO-K1 reporter cells) (human, UniProt Q16620 32-822). Kind of assay: cell-based or functional assay.
Assay [6] deals with T2, human TfR-1 (transferrin receptor 1), …. Nature of the assay: kinetic ELISA on coated recombinant TfR-1 (Vmax at 370 nm); ND: not detected. How it is done:
as §1, §2

Assay [7] addresses T3, mouse TfR-1 (transferrin receptor 1), …. The assay is described as above. How it is done: as §1, §2
In assay [8] the target is T4, rat TfR-1 (transferrin receptor 1), …. The assay is described as above. The procedure:
as §1, §2

Assay [9] concerns the target T5, cynomolgus TfR-1 (transferrin receptor …). Described as above. The procedure:
as §1, §2

T5 sequence (chain, as listed by the source): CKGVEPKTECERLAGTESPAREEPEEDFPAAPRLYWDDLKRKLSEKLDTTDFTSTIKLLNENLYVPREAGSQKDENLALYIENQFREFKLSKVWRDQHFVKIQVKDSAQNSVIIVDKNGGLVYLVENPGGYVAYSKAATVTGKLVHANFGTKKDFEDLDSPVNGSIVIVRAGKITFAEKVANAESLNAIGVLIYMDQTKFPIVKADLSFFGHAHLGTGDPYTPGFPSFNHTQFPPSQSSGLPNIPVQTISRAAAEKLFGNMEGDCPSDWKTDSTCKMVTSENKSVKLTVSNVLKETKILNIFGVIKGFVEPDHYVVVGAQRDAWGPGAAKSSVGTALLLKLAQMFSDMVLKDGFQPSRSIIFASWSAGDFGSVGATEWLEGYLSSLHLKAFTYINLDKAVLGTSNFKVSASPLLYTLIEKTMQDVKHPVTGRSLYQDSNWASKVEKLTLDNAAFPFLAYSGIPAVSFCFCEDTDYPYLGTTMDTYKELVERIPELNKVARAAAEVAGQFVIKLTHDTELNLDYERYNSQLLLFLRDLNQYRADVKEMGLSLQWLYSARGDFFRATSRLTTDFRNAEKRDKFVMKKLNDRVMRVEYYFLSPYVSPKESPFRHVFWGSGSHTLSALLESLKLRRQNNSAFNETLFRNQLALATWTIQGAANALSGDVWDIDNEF
Sequence of human TrkB receptor (overexpressed on TrkB-NFAT-bla CHO-K1 reporter cells) (Q16620 32-822): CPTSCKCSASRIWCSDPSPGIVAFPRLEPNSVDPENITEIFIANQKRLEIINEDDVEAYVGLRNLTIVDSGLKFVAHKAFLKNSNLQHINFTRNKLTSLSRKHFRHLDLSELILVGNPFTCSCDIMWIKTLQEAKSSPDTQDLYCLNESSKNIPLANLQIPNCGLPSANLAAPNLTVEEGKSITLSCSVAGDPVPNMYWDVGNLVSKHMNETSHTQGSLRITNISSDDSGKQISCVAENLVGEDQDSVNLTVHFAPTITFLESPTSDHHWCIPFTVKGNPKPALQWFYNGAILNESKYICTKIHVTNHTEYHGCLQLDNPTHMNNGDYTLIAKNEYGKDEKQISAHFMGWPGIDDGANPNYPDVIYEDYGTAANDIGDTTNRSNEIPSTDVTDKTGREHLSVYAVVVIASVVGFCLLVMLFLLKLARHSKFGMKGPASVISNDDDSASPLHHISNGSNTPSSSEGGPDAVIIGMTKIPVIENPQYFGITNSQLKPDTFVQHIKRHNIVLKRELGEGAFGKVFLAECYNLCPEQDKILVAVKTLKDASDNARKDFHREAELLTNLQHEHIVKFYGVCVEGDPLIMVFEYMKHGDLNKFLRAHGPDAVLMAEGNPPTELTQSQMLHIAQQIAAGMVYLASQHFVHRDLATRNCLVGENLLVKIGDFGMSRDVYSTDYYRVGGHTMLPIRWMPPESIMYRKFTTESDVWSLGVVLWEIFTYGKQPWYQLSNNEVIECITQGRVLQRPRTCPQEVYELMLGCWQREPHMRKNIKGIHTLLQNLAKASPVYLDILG
T2 sequence (P02786 89-760 limits assumed): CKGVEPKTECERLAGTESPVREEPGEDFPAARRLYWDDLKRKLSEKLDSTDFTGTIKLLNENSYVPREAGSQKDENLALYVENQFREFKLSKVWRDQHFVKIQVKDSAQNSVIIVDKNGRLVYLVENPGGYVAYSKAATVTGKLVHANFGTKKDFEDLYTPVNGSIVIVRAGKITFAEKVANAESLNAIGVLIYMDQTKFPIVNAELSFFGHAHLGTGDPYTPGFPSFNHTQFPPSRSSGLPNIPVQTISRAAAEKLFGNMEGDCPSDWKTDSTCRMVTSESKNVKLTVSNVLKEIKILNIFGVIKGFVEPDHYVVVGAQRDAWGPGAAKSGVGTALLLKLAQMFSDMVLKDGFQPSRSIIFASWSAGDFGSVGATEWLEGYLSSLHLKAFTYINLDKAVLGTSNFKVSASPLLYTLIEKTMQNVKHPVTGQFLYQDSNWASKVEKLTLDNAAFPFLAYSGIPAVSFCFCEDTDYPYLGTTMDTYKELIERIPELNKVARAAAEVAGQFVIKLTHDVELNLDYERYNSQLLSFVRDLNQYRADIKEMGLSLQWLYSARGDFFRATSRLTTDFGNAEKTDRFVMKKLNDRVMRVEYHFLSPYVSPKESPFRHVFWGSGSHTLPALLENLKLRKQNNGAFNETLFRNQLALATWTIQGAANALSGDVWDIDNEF
T1 sequence (P02768 25-609 limits assumed): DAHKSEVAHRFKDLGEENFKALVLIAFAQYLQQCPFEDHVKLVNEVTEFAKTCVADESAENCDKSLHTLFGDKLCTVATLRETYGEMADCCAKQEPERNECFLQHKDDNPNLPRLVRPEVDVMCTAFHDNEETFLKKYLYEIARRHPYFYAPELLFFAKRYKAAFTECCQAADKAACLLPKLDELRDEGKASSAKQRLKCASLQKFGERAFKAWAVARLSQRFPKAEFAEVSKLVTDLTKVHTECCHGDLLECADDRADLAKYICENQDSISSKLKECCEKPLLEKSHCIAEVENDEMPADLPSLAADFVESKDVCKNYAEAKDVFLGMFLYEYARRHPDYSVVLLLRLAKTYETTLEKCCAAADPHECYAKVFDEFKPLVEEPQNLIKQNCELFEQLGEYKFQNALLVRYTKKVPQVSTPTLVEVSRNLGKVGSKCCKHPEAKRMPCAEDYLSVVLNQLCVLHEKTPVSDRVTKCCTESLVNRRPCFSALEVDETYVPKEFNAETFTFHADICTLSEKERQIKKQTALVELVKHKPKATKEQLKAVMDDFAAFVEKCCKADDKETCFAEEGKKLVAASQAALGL

B1: VNAR-Fc control conjugate (TXB4 fused to the N-terminal end of the Fc domain) (Fc fusion)
chain: ARVDQTPQTITKETGESLTINCVLRDSNCALSSTYWYRKKSGSTNEENISKGGRYVETVNSGSKSFSLRINDLTVEDSGTYRCNVVQYPQYPNYFWCDVYGDGTAVTVNA
notes: also called control VNAR-Fc fusion; not shown: Fc domain
Turning to B1, the binding result in the assay with human serum albumin is “no binding”. Further, the EC50 in assay [1] was determined as 0.78 nM; in assay [2], 0.54 nM; in assay [3] it was 1.37 nM; in assay [4], 1 nM.

B2: unconjugated TrkB-AAb (mouse-human chimeric 29D7 TrkB agonist antibody, human IgG1 LALA / human kappa) (antibody, V domains shown)
VH: EVQLQQSGPELVKPGASMKISCKTSGYSFTAYFMNWVKQSHGKSLEWIGRINPNNGDTFYTQKFKGKATLTVDKSSNTAHMELLSLTSEDSAIYYCGRRDYFGAMDYWGQGTSVTVSS
VL: AIVLIQSPATLSVTPGDSVSLSCRASQTISNNLHWYQQKSHESPRLLIKSASLAISGIPSRFSGSGSGTDFTLSISSVETEDFGMYFCQQSNSWPNTFGGGTKLEIKR
notes: VH and VL of mouse 29D7 fused to human IgG1 and human kappa constant regions; Copies of 2 are inferred from the IgG1 format; also called unconjugated TrkB antibody; TrkB 29D7
Consider B2, for which the “maximal reporter response as percentage of the BDNF response (TrkB-NFAT-bla CHO-K1 cells)” value (“maximal reporter response as percentage” for short) in [5] was around 50%. Also, the binding result (with human serum albumin; in [6]; in [7]; in [8]; in assay [9]) was “no binding” in each case.

B3: TrkB(HC2N) conjugate (TXB4 VNAR fused to the N-terminus of the TrkB antibody heavy chain via a 3xG4S linker) (bispecific antibody, human IgG1, kappa, L234A L235A)
light: AIVLIQSPATLSVTPGDSVSLSCRASQTISNNLHWYQQKSHESPRLLIKSASLAISGIPSRFSGSGSGTDFTLSISSVETEDFGMYFCQQSNSWPNTFGGGTKLEIKRTVAAPSVFIFPPSDEQLKSGTASVVCLLNNFYPREAKVQWKVDNALQSGNSQESVTEQDSKDSTYSLSSTLTLSKADYEKHKVYACEVTHQGLSSPVTKSFNRGEC
heavy: not shown
notes: Copies of 2 are inferred from the IgG1 format; also called TXB4-TrkB-AAb conjugate
In the case of B3, the “agonist activity relative to TrkB(HV2N) (TrkB-NFAT-bla CHO-K1 cells)” value in [5] was ~7 fold less than TrkB(HV2N). In addition, the “maximal reporter response as percentage” value in [5] is around 50%. In addition, the binding result with human serum albumin is on record as “no binding”. Also, the EC50 in assay [1] came out at 0.74 nM; in assay [2] it was 0.63 nM; in assay [3], 4.03 nM; in [4], 0.79 nM.

B4: TrkB(HV2N) conjugate (TXB4 VNAR inserted between the CH1 and Fc domains of the TrkB antibody heavy chain) (bispecific antibody, IgG1)
light: AIVLIQSPATLSVTPGDSVSLSCRASQTISNNLHWYQQKSHESPRLLIKSASLAISGIPSRFSGSGSGTDFTLSISSVETEDFGMYFCQQSNSWPNTFGGGTKLEIKRTVAAPSVFIFPPSDEQLKSGTASVVCLLNNFYPREAKVQWKVDNALQSGNSQESVTEQDSKDSTYSLSSTLTLSKADYEKHKVYACEVTHQGLSSPVTKSFNRGEC
heavy: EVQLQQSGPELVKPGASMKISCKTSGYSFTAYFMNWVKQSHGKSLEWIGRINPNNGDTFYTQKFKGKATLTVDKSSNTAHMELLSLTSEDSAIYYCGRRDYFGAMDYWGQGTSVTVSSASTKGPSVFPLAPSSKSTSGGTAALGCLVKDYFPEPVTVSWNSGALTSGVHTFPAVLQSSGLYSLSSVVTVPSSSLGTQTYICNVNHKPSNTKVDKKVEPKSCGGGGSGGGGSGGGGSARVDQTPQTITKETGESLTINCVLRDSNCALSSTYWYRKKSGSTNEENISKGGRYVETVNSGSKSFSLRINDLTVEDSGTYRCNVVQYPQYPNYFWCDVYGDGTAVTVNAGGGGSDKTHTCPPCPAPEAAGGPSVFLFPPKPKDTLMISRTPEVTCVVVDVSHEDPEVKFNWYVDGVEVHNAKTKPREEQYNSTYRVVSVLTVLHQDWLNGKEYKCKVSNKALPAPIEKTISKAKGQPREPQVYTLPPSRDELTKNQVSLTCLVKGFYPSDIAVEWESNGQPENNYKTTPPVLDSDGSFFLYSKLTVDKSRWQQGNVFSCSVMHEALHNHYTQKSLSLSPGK
notes: Copies of 2 are inferred from the IgG1 format; also called TrkB1-TXB4; TXB4-TrkB-AAb conjugate
As for B4, the “maximal reporter response as percentage” value in assay [5] is around 50%. Further, the binding result with human serum albumin is reported as “no binding”. Besides, the EC50 in assay [1] was 5.3 nM; in assay [2], 5.07 nM; in [3], 61 nM; in [4] it was 2.04 nM.

The values above are taken from patent publication US20230000998A1 (OSSIANIX, published 2023).
